Source: patent publication US20100160617

Experiments:
[1] = biological target: HCV NS5B RNA-dependent RNA polymerase (Hepatitis C virus) (UniProt P26663); assay: EMSA; settings: 2'-F on all C and U; apparent Kd; 4% nondenaturing gel
[2] = biological target: HCV NS5B RNA-dependent RNA polymerase (Hepatitis C virus) (UniProt P26663); assay: SPR; settings: 2'-F on all C and U

Chain of HCV NS5B RNA-dependent RNA polymerase (Hepatitis C virus) (P26663 2420-3010): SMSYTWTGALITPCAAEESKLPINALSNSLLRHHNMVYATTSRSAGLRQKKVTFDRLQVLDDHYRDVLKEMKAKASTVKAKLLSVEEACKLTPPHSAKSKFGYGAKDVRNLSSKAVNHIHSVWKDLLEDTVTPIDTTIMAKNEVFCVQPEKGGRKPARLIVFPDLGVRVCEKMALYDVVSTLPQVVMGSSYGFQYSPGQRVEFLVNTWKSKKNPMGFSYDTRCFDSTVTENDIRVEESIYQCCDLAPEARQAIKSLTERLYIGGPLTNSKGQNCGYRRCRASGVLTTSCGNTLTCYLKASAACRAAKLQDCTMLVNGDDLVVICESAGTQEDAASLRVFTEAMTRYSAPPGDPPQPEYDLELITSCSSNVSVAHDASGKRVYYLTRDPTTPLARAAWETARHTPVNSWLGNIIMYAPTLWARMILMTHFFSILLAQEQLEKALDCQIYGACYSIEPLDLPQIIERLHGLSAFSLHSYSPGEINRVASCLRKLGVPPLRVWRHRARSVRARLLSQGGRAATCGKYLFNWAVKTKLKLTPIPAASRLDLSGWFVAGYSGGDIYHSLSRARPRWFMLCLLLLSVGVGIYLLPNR

“GGGAGAGCGGAAGCGUGCUGGGCCGACAGGGUAGCUUACAGCUGCAUGAUCGCUAGAGGGCGAACAUAACCCAGAGGUCGAUGGAUCCCCCC [RNA aptamer #24]” gave a Kd [1] of 5 nM.

With “GUUGAACGAUUGGUAGUAGAAUAUCGUCAG [RNA aptamer #9-t2]” the Kd ([2]; listing SEQ 4 lacks the 5' G printed in text) was 2.6 nM.

Sequence “GGGAGAGCGGAAGCGUGCUGGGCCUUGAACGAUUGGUAGUAGAAUAUCGUCAGUGAACGGCAGUCAUAACCCAGAGGUCGAUGGAUCCU [RNA aptamer #9]” has a Kd [1] of 18 nM.

“AACGAUUGGUAGUAGAAUAUCGU [RNA aptamer #9-t3]” was tested, and the Kd ([2]; 5' end of the transcript may carry extra G from T7 primer) was 40.4 nM.

For “GCUGGGCCUUGAACGAUUGGUAGUAGAAUAUCGUCAGUGAACGGC [RNA aptamer #9-t1]”, the Kd [2] was 8.4 nM.
